As usually defined, the pKd is −log10 of the Kd, conventionally taken in molar units. Read a low pKd as a large Kd.

For one substance, Kd results are on record in article PMC7149228.

This assay deals with Polyubiquitinated model substrate (lac repressor degron-sfGFP) bearing long ubiquitin chains (E. coli | not stated) (UniProt P0CG48). Put plainly: MST.

pKd: −log10 of the molar value.

On to “Ddi1 construct containing the HDD and RVP domains (D220N) (domain or fragment)”, for which the pKd was 4.00.
